Values quoted from earlier work, collected in patent US20130136753A1, “PAXILLIN AS A THERAPEUTIC OR DIAGNOSTIC MARKER FOR CANCER” (UNIVERSITY OF ROCHESTER, priority 2010, published 2013).

B1: Aptamer aptTOV1: aptamer binding ovarian clear cell carcinoma cell line TOV-21G (nucleic acid)
chain: UCCAGAGUGACGCAGCAGAUCUGUGUAGGAUCGCAGUGUAGUGGACAUUUGAUACGACUGGCUCGACACGGUGGCUUA
modifications: listed as RNA, chemistry not given here
B2: Aptamer S6: RNA aptamer binding HER-2 overexpressing breast cancer cells (nucleic acid)
chain: GGGAGAUACCAGCUUAUUCAAUUUGGAUGGGGAGAUCCGUUGAGUAAGCGGGCGUGUCUCUCUGCCGCCUUGCUAUGGGGAGAUAGUAAGUGCAAUCU
modifications: listed as RNA, chemistry not given here

Experiments:
[1] = system: ovarian clear cell carcinoma cell line TOV-21G; conditions: cited from earlier work
[2] = system: HER-2 overexpressing breast cancer cells; conditions: cited from earlier work

Molecule	binding to TOV-21G cells [1]	binding to HER-2 overexpressing breast cancer cells [2]
B1	high affinity	–
B2	–	binds specifically
